Laboratory results: the RNAGym collection of RNA variant scans (doi:10.1073/pnas.2313332121)

B1: TPR t1 (parent)
chain: GACCAAUCUGCCCUCAGAGCUCGAGAACAUCUUCGGAUGCAGAGGAGGCAGGCUUCGGUGGCGCGAUAGCGCCAACGUCCUCAACCUCCAAUGCAUCCCACCACAUGAUGAUGCCUGAAGAGCCUUGGUUUUUUG

Variants of: B1
Test: polymerase ribozyme fitness, log enrichment relative to wild type (log ratio); higher = more active; in vitro selection for triplet polymerase activity
Outline: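 Mutant libraries were PCR-built and transcribed for each subunit of a heterodimeric triplet polymerase ribozyme and selected for one round in triplicate at −7 °C, frozen, before gel excision of extended constructs and streptavidin-bead capture. Input and output libraries were Illumina-sequenced, keeping genotypes with ≥10 input reads and ≥1 read per output. Fitness is a logarithmic ratio of genotype to wild-type enrichment, in base 2, using inverse-variance-weighted replicate averages.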

| Variant | polymerase ribozyme fitness (log ratio) |
| --- | --- |
| A24G C49G A121C | -0.875 |
| C28G A41C C64U C115A | -2.93 |
| G23U G42U U54G C64G G93C G117C | -6.49 |
| A26G G71U C88G G120C | -3.91 |
| C28A U30G A43G G110C | -6.92 |
| G23U C34A G47A C53G G110C U129G | -7.48 |
| A27U C72G | -3.21 |
| A24G C34A C53U U87G U132A | -4.54 |
| C28A G45U C72A C115A | -6.12 |
| A27G C70U C80A | -4.47 |
| A27G G71A C72U A95G | -4 |
| A24G G48A C64G A108U A121C | -6.51 |
| A26U C53U G69C C115G G117C U133G | -6.29 |
| G23C C53U U92G C123U | -8.04 |
| A26U G71A C82U | -4.08 |
| A27C C49G | -4.07 |
| A26G G45C A95G C98G | -7.76 |
| G25A G60U G117A | -7.98 |
| A27U C89U | -2.8 |
| A27U C88U C102A | -5.16 |
| A26G A37U C53G | -3.12 |

| Variant | polymerase ribozyme fitness (log ratio) |
| --- | --- |
| A27U C94G | -5.02 |
| A26G G39A C49U C64U | -3.32 |
| G23C U30C G42U G69A U78G A105C C115G | -7.04 |
| A27G G69C C102U | -4.65 |
| A24G G51U G69A G113C G120U | -6.67 |
| G25U A26G | -3.22 |
| A24G U109C | -5.04 |
| A24U G39A C72A U112C | -7.11 |
| A27G G69A | -2.88 |
| C28A A83U G110U | 1.66 |
| A26C C53U C56G | -5.02 |
| A27U U87C | -2.89 |
| A26U C53U C56U | -3.75 |
| A24G C72U | -1.6 |
| A26G A37U C49U G120U | -2.45 |
| A27U C73U | -2.99 |
| C28A A46U G77C A121C | -4.52 |
| A27U C56G | -4.07 |
| A24G A90C | -3.03 |
| A27G G36U G42C G120A | -5.26 |
| A26G U133G | -2.68 |

| Variant | polymerase ribozyme fitness (log ratio) |
| --- | --- |
| A26G C53U C101A | -3.58 |
| C28A G110C A119U | -1.42 |
| C28A G61C | -5.18 |
| A26G G36U C82G | -4.05 |
| A24C C124A | -5.24 |
| C28A C72G C123U U125C | -4.42 |
| C28A C85U | -4.56 |
| A26U C49U | -3.62 |
| A27C G71A | -4 |
| A27U A84U | -3.79 |
| A27U A84G | -4.18 |
| A27C G69U C73A | -1.89 |
| A26G C40U G63C U81C U130A | -4.66 |
| A26G G69U C70A G113U | -4.8 |
| G25U G110U | -5.41 |
| A27G A50U G61A A83G U126G G128C | -5.38 |
| A24U C72U | -5.63 |
| G25U G36U | -6.39 |
| A27C G44C C73G | -5.57 |
| G25A C28A C31G G63U A74G C99U | -7.56 |
| A27G U125G | -2.34 |

| Variant | polymerase ribozyme fitness (log ratio) |
| --- | --- |
| A27C U112C G120C U126C U131A | -3.22 |
| A26U U54C C72U U133A | -2.18 |
| C28G C53A C88U C124A | -1.3 |
| A27U C94G C99G C104U G110U C114G | -6.8 |
| A27U C28G G63U G110C | -5.36 |
| A26C G120C G127A | -5.53 |
| A26U G93U | -3.09 |
| A27G A46U G57C U81A A83C C104A G117C G122A | -7.94 |
| A26G U112A | -0.933 |
| A27G C115A | -3.25 |
| C28A C72A | -3.59 |
| A24C C31G U32G C62U C114G | -8.07 |
| G25C A83C C94G A103U C124G U125C | -8.57 |
| A27G C98A | -7.76 |
| A26C G61A | -3.85 |
| A27U G69U U132C | -1.95 |
| A27U C97U U130C | -3.37 |
| A24G A27G G120A | -3.91 |
| A24C G39A U55C C104A C124G | -5.87 |
| A24C C73A | -6.46 |
